The results in this text go back to article PMC6144819 (Nucleic Acids Research, 2018).

What is called stoichiometry N is a count of units in the complex or per binding partner.

This assay has as its target T1, Drosophila SUMO-TRAX (WT) (Drosophila, UniProt Q9VF77 1-298).
T1 sequence (looked up): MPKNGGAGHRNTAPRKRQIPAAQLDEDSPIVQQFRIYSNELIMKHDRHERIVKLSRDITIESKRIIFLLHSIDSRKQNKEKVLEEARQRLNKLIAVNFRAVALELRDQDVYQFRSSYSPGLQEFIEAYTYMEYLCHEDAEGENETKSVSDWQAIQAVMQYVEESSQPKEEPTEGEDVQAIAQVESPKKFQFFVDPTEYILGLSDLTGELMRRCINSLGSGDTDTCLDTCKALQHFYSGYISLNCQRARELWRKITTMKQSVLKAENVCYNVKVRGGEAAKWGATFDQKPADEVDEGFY
Description: cryo-EM structure.

B1: Drosophila Translin (natural protein, UniProt Q7JVK6 1-235, looked up)
chain: MSNFVNLDIFSNYQKYIDNEQEVRENIRIVVREIEHLSKEAQIKLQIIHSDLSQISAACGLARKQVELCAQKYQKLAELVPAGQYYRYSDHWTFITQRLIFIIALVIYLEAGFLVTRETVAEMLGLKISQSEGFHLDVEDYLLGILQLASELSRFATNSVTMGDYERPLNISHFIGDLNTGFRLLNLKNDGLRKRFDALKYDVKKIEEVVYDVSIRGLSSKEKDQQEEPAVPATE
In the case of B1, the “stoichiometry N” value was 1 TRAX per Translin (4:4).
